Where a chain is given by its changes, count along the chain named.
Legend:
[1] = target: T1, I-CreI_D75N (UniProt P05725 1-163, D75N); assay: crystal structure; 2 mM Ca2+; MST at 25 C: 50 mM Tris pH 8.0 (I-CreI_3115; 2 or 10 mM CaCl2) or 50 mM Hepes pH 7.5 (I-CreI_D75N; 10 mM CaCl2), 300 mM NaCl, 0.5 mM TCEP, 0.05% Tween-20; details: protein: recombinant; chain copies: 2; blunt; self-annealed palindrome
T1 sequence: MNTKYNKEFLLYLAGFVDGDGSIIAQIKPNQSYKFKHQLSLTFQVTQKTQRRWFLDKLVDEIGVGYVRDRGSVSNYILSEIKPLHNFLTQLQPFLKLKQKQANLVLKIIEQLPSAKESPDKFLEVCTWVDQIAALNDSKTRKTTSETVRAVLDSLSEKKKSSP

[2] = target: T1, I-CreI_D75N; assay: crystal structure; 2 mM Mg2+; uncleaved DNA; MST at 25 C: 50 mM Tris pH 8.0 (I-CreI_3115; 2 or 10 mM CaCl2) or 50 mM Hepes pH 7.5 (I-CreI_D75N; 10 mM CaCl2), 300 mM NaCl, 0.5 mM TCEP, 0.05% Tween-20; details: protein: recombinant; chain copies: 2; blunt
[3] = target: T2, I-CreI_3115 chain 1;I-CreI_3115 chain 2 (;, UniProt P05725;P05725 1-163;1-163, Y33G;Q38K;Q44K;R68Y;R70S;D75N;I77Y;I132V|G19S;Y33V;Q38R;S40Q;Q44D;R68A;R70S;D75K …); assay: MST; 2 mM CaCl2; labelled DNA; MST at 25 C: 50 mM Tris pH 8.0 (I-CreI_3115; 2 or 10 mM CaCl2) or 50 mM Hepes pH 7.5 (I-CreI_D75N; 10 mM CaCl2), 300 mM NaCl, 0.5 mM TCEP, 0.05% Tween-20; details: protein: recombinant;recombinant; tags: ;; copies: 1;1; label: Cy5 on coding strand (5'); blunt
T2 sequence 1: T1 sequence with Y33G, Q38K, Q44K, R68Y, R70S, I77Y, I132V
T2 sequence 2: T1 sequence with G19S, Y33V, Q38R, S40Q, Q44D, R68A, R70S, N75K, I77R

B1: I-CreI_D75N_target (dsDNA)
DNA 1: TCAAAACGTCGTACGACGTTTTGA
DNA 2: TCAAAACGTCGTACGACGTTTTGA
Question: Does B1 bind [1]?
Answer: binds

B2: I-CreI_D75N_target-null (dsDNA)
DNA 1: TCAAAACTGCGTACGACGTTTTGA
DNA 2: TCAAAACGTCGTACGCAGTTTTGA
Question: Does B2 bind [2]?
Answer: binds

B3: I-CreI_3115_target (Cy5) (dsDNA)
DNA 1: TCAGACTTCTCCACAGGAGTCAGA
DNA 2: TCTGACTCCTGTGGAGAAGTCTGA
Question: How did the Kd [3] turn out when B3 was run?
Answer: 90 nM

Source: paper PMC6035192, “Understanding the indirect DNA read-out specificity of I-CreI Meganuclease”
